In PMC9703590 (Protein Science : A Publication of the Protein Society, 2022):
Where two headings read alike, the source gives them in different places.

Tests used:
AncCDT‐5 (A5) = assay: discontinuous colorimetric assay of phenylpyruvate formation; type: biochemical, synthetic construct; conditions: 25°C, 50 mM Na2HPO4 substrate buffer, 100 nM enzyme
SEC-MALS = target: the molecule itself; assay: SEC-MALS
[1] = target: the molecule itself

| Molecule | stoichiometry N (SEC-MALS) | further results |
| --- | --- | --- |
| O=C(O)C(=O)CC1(C(=O)O)C=CC(O)C=C1 (stereo not shown) [prephenate] | – | Km (AncCDT‐5 (A5)): 81.2 ± 26.3 µM |
| Cyclohexadienyl dehydratase from Pseudomonas aeruginosa (PaCDT) (enzyme, UniProt Q01269 26-268, looked up) QESRLDRILESGVLRVATTGDYKPFSYRTEEGGYAGFDVDMAQRLAESLGAKLVVVPTSWPNLMRDFADDRFDIAMSGISINLERQRQAYFSIPYLRDGKTPITLCSEEARFQTLEQIDQPGVTAIVNPGGTNEKFARANLKKARILVHPDNVTIFQQIVDGKADLMMTDAIEARLQSRLHPELCAVHPQQPFDFAEKAYLLPRDEAFKRYVDQWLHIAEQSGLLRQRMEHWLEYRWPTAHGK | 3 | – |
| PaCDTΔC (C-terminal-truncated PaCDT) (enzyme, Pseudomonas aeruginosa, UniProt Q01269 26-259, looked up) QESRLDRILESGVLRVATTGDYKPFSYRTEEGGYAGFDVDMAQRLAESLGAKLVVVPTSWPNLMRDFADDRFDIAMSGISINLERQRQAYFSIPYLRDGKTPITLCSEEARFQTLEQIDQPGVTAIVNPGGTNEKFARANLKKARILVHPDNVTIFQQIVDGKADLMMTDAIEARLQSRLHPELCAVHPQQPFDFAEKAYLLPRDEAFKRYVDQWLHIAEQSGLLRQRMEHWLE | 3 | – |
| Ws0279 (natural protein) QKSTLNEIIKRGELRVGLEPGYLPFEMKDKKGNVIGFDVDLAREMAKAMGVKLKLVPTSWDGLIPGLVTEKFDIIISGMTISQERNLRVNFVEPYIVVGQSLLVKKGLEKGVKSYKDLDKPELTLVTKFGVSAEYAAKRLFKNAKLKTYDTEAEAVQEVLNGKADMFIFDLPFNVAFMAQKGQGYLVHLDTSLTYEPLGWAIKKGDPDFLNWLNHFLAQIKHDGSYDELYERWFVL | – | stoichiometry N [1]: 3 |
